According to patent US20160024487:

Tests used:
[1] = molecular target: T1, Lys(Dnp)-ATNATMQPRIVGG-Lys(Abz)
T1 chain: KATNATMQPRIVGGK

[2] = molecular target: T2, Lys(Dnp)-ATNATAFPRIVGG-Lys(Abz)
T2 chain: KATNATAFPRIVGGK

[3] = molecular target: T3, Lys(Dnp)-ATNATATPRIVGG-Lys(Abz)
T3 chain: KATNATATPRIVGGK

[4] = molecular target: T4, Lys(Dnp)-ATNATYSPRIVGG-Lys(Abz)
T4 chain: KATNATYSPRIVGGK

[5] = molecular target: T5, Lys(Dnp)-ATNATIYPRIVGG-Lys(Abz)
T5 chain: KATNATIYPRIVGGK

[6] = molecular target: T6, Lys(Dnp)-ATNATMGPRIVGG-Lys(Abz)
T6 chain: KATNATMGPRIVGGK

[7] = molecular target: T7, Lys(Dnp)-ATNATLQPRIVGG-Lys(Abz)
T7 chain: KATNATLQPRIVGGK

[8] = molecular target: T8, Lys(Dnp)-ATNATFGPRIVGG-Lys(Abz)
T8 chain: KATNATFGPRIVGGK

[9] = molecular target: T9, Lys(Dnp)-ATNATPKPRIVGG-Lys(Abz)
T9 chain: KATNATPKPRIVGGK

[10] = molecular target: T10, Lys(Dnp)-ATNATAKPRIVGG-Lys(Abz)
T10 chain: KATNATAKPRIVGGK

[11] = molecular target: T11, Lys(Dnp)-ATNATLRPRIVGG-Lys(Abz)
T11 chain: KATNATLRPRIVGGK

[12] = molecular target: T12, Lys(Dnp)-ATNATWGPRIVGG-Lys(Abz)
T12 chain: KATNATWGPRIVGGK

[13] = molecular target: T13, Lys(Dnp)-ATNATIRPRIVGG-Lys(Abz)
T13 chain: KATNATIRPRIVGGK

[14] = molecular target: T14, Lys(Dnp)-ATNATVEPRIVGG-Lys(Abz)
T14 chain: KATNATVEPRIVGGK

[15] = molecular target: T15, Lys(Dnp)-ATNATINPRIVGG-Lys(Abz)
T15 chain: KATNATINPRIVGGK

[16] = molecular target: T16, Lys(Dnp)-ATNATEQPRIVGG-Lys(Abz)
T16 chain: KATNATEQPRIVGGK

[17] = molecular target: T17, Lys(Dnp)-ATNATQKPRIVGG-Lys(Abz)
T17 chain: KATNATQKPRIVGGK

[18] = molecular target: T18, Lys(Dnp)-ATNATESPRIVGG-Lys(Abz)
T18 chain: KATNATESPRIVGGK

[19] = molecular target: T19, Lys(Dnp)-ATNATGWPRIVGG-Lys(Abz)
T19 chain: KATNATGWPRIVGGK

[20] = molecular target: T20, Lys(Dnp)-ATNATVNPRIVGG-Lys(Abz)
T20 chain: KATNATVNPRIVGGK

[21] = molecular target: T21, Lys(Dnp)-ATNATPTPRIVGG-Lys(Abz)
T21 chain: KATNATPTPRIVGGK

[22] = molecular target: T22, Lys(Dnp)-ATNATTDPRIVGG-Lys(Abz)
T22 chain: KATNATTDPRIVGGK

[23] = molecular target: T23, Lys(Dnp)-ATNATQAPRIVGG-Lys(Abz)
T23 chain: KATNATQAPRIVGGK

[24] = molecular target: T24, Lys(Dnp)-ATNATFAPRIVGG-Lys(Abz)
T24 chain: KATNATFAPRIVGGK

[25] = molecular target: T25, Lys(Dnp)-ATNATEMPRIVGG-Lys(Abz)
T25 chain: KATNATEMPRIVGGK

[26] = molecular target: T26, Lys(Dnp)-ATNATPMPRIVGG-Lys(Abz)
T26 chain: KATNATPMPRIVGGK

[27] = molecular target: T27, Lys(Dnp)-ATNATAMPRIVGG-Lys(Abz)
T27 chain: KATNATAMPRIVGGK

[28] = molecular target: T28, Lys(Dnp)-ATNATQFPRIVGG-Lys(Abz)
T28 chain: KATNATQFPRIVGGK

[29] = molecular target: T29, Lys(Dnp)-ATNATDRPRIVGG-Lys(Abz)
T29 chain: KATNATDRPRIVGGK

[30] = molecular target: T30, Lys(Dnp)-ATNATQEPRIVGG-Lys(Abz)
T30 chain: KATNATQEPRIVGGK

[31] = molecular target: T31, Lys(Dnp)-ATNATRRPRIVGG-Lys(Abz)
T31 chain: KATNATRRPRIVGGK

[32] = molecular target: T32, Lys(Dnp)-ATNATGLPRIVGG-Lys(Abz)
T32 chain: KATNATGLPRIVGGK

[33] = molecular target: T33, Lys(Dnp)-ATNATHNPRIVGG-Lys(Abz)
T33 chain: KATNATHNPRIVGGK

[34] = molecular target: T34, Lys(Dnp)-ATNATQNPRIVGG-Lys(Abz)
T34 chain: KATNATQNPRIVGGK

[35] = molecular target: T35, Lys(Dnp)-ATNATALPRIVGG-Lys(Abz)
T35 chain: KATNATALPRIVGGK

[36] = molecular target: T36, Lys(Dnp)-ATNATHPPRIVGG-Lys(Abz)
T36 chain: KATNATHPPRIVGGK

[37] = molecular target: T37, Lys(Dnp)-ATNATKQPRIVGG-Lys(Abz)
T37 chain: KATNATKQPRIVGGK

[38] = molecular target: T38, Lys(Dnp)-ATNATPDPRIVGG-Lys(Abz)
T38 chain: KATNATPDPRIVGGK

[39] = molecular target: T39, Lys(Dnp)-ATNATASPRIVGG-Lys(Abz)
T39 chain: KATNATASPRIVGGK

[40] = molecular target: T40, Lys(Dnp)-ATNATFIPRIVGG-Lys(Abz)
T40 chain: KATNATFIPRIVGGK

[41] = molecular target: T41, Lys(Dnp)-ATNATKAPRIVGG-Lys(Abz)
T41 chain: KATNATKAPRIVGGK

B1: Human plasma purified Factor Xa (protein)
chain 1: ANSFLEEMKKGHLERECMEETCSYEEAREVFEDSDKTNEFWNKYKDGDQCETSPCQNQGKCKDGLGEYTCTCLEGFEGKNCELFTRKLCSLDNGDCDQFCHEEQNSVVCSCARGYTLADNGKACIPTGPYPCGKQTLER
chain 2: IVGGQECKDGECPWQALLINEENEGFCGGTILSEFYILTAAHCLYQAKRFKVRVGDRNTEQEEGGEAVHEVEVVIKHNRFTKETYDFDIAVLRLKTPITFRMNVAPACLPERDWAESTLMTQKTGIVSGFGRTHEKGRQSTRLKMLEVPYVDRNSCKLSSSFIITQNMFCAGYDTKQEDACQGDSGGPHVTRFKDTYFVTGIVSWGEGCARKGKYGIYTKVTAFLKWIDRSMKTRGLPKAKSHAPEVITSSPLK
FXa kcat/KM [1]: 950 M⁻¹ s⁻¹ | FXa kcat/KM [2]: 22 M⁻¹ s⁻¹ | FXa kcat/KM [3]: 330 M⁻¹ s⁻¹ | FXa kcat/KM [4]: 41 M⁻¹ s⁻¹ | FXa kcat/KM [5]: 220 M⁻¹ s⁻¹ | FXa kcat/KM [6]: 54 M⁻¹ s⁻¹ | FXa kcat/KM [7]: 1200 M⁻¹ s⁻¹ | FXa kcat/KM [8]: 100 M⁻¹ s⁻¹ | FXa kcat/KM [9]: 74 M⁻¹ s⁻¹ | FXa kcat/KM [10]: 30 M⁻¹ s⁻¹ | FXa kcat/KM [11]: 610 M⁻¹ s⁻¹ | FXa kcat/KM [12]: 61 M⁻¹ s⁻¹ | FXa kcat/KM [13]: 760 M⁻¹ s⁻¹

B2: Human plasma purified Factor Xa (Molecular Innovations, Inc) (protein)
chain 1: B1 chain 1
chain 2: B1 chain 2
FXa kcat/KM [14]: 110 M⁻¹ s⁻¹ | FXa kcat/KM [15]: 870 M⁻¹ s⁻¹ | FXa kcat/KM [16]: 11 M⁻¹ s⁻¹ | FXa kcat/KM [17]: 49 M⁻¹ s⁻¹ | FXa kcat/KM [18]: 5.3 M⁻¹ s⁻¹ | FXa kcat/KM [19]: 82 M⁻¹ s⁻¹ | FXa kcat/KM [20]: 70 M⁻¹ s⁻¹ | FXa kcat/KM [21]: 840 M⁻¹ s⁻¹ | FXa kcat/KM [22]: 11 M⁻¹ s⁻¹ | FXa kcat/KM [23]: 410 M⁻¹ s⁻¹ | FXa kcat/KM [24]: 130 M⁻¹ s⁻¹ | FXa kcat/KM [25]: 13 M⁻¹ s⁻¹ | FXa kcat/KM [26]: 990 M⁻¹ s⁻¹ | FXa kcat/KM [27]: 460 M⁻¹ s⁻¹ | FXa kcat/KM [28]: 150 M⁻¹ s⁻¹ | FXa kcat/KM [29]: 190 M⁻¹ s⁻¹ | FXa kcat/KM [30]: 920 M⁻¹ s⁻¹ | FXa kcat/KM [31]: 900 M⁻¹ s⁻¹ | FXa kcat/KM [32]: 78 M⁻¹ s⁻¹ | FXa kcat/KM [33]: 71 M⁻¹ s⁻¹ | FXa kcat/KM [34]: 610 M⁻¹ s⁻¹ | FXa kcat/KM [35]: 300 M⁻¹ s⁻¹ | FXa kcat/KM [36]: 7 M⁻¹ s⁻¹ | FXa kcat/KM [37]: 100 M⁻¹ s⁻¹ | FXa kcat/KM [38]: 790 M⁻¹ s⁻¹ | FXa kcat/KM [39]: 310 M⁻¹ s⁻¹ | FXa kcat/KM [40]: 150 M⁻¹ s⁻¹ | FXa kcat/KM [41]: 52 M⁻¹ s⁻¹
